The values that follow come from paper doi:10.1101/2025.05.26.656162.

In the data set the target is Sam68 N-terminal region (human, UniProt Q07666 1-96). The data set is described as follows: single-molecule nanoaperture optical tweezers.
Sequence of Sam68 N-terminal region (Q07666 1-96): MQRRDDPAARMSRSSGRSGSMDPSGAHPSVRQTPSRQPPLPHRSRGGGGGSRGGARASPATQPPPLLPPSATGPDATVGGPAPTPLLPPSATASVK

Consider GGGUGACACACUAGCUAUAGCAUUAAAAGACCGAGCAAGU (ssRNA) [G8.5 RNA], for which the Kd (in general, the constant that tells how readily two partners part at equilibrium) was roughly 8 µM.
